Test results as given in PMC5457526.
Each block holds one substance with its values, some of them ahead of it.

Tests used:
[1] = biological target: recombinant fragment human surfactant protein D (human); experiment: SEC; Superdex 200, 1.5 mg ml^-1, 20 mM Tris, 150 mM NaCl, 1 mM EDTA, pH 8
[2] = biological target: recombinant fragment human surfactant protein D (human); experiment: native MS; ESI-MS of SEC separated protein in 100 mM ammonium acetate, pH 7.5
[3] = biological target: constitutive dimer mutant NT_(E79QE84QE119Q) of the E. australis MaSp1 N-terminal domain (Euprosthenops australis); experiment: SEC; Superdex 75, 2 mg ml^-1, 20 mM MES, 150 mM NaCl, 1 mM EDTA, pH 5.5, room temperature; monomer to dimer
[4] = biological target: constitutive dimer mutant NT_(E79QE84QE119Q) of the E. australis MaSp1 N-terminal domain (Euprosthenops australis); experiment: SEC; Superdex 75, 2 mg ml^-1, 20 mM Tris, 150 mM NaCl, 1 mM EDTA, pH 8, room temperature; monomer to dimer
[5] = biological target: wild-type N-terminal domain (NT) of Euprosthenops australis major ampullate spidroin protein (MaSp) 1 (Euprosthenops australis); experiment: SEC; Superdex 75, 2 mg ml^-1, 20 mM MES, 150 mM NaCl, 1 mM EDTA, pH 5.5, room temperature; monomer to dimer

stoichiometry N [1]: 3
stoichiometry N [2]: 3
Substance: recombinant fragment human surfactant protein D (domain or fragment)

stoichiometry N [3]: 2
stoichiometry N [4]: 2
Substance: constitutive dimer mutant NT_(E79QE84QE119Q) of the E. australis MaSp1 N-terminal domain (domain or fragment)

stoichiometry N [5]: 2
Substance: wild-type N-terminal domain (NT) of Euprosthenops australis major ampullate spidroin protein (MaSp) 1 (domain or fragment)
